# In a protein production outcome set (Wang et al. 2014):
# Assay: label from the status in PepcDB records
row,Sequence,protein production
1,MSLIPKVSVIVPIYNVEKYLDQCVQALLAQTLSDIEIILIDDESPDNCPKICDDYAAQYPNIKVIHKKNAGLGMACNSGLDVATGEYVAFCDSDDYVDSDMYMTMYNVAQKYTCDAVFTGLKRITMAGIPTGTVTHQKEFKLYKNKNEIHTLLKDLIASDPYAREERAIQVSAKVVLYRRNLIEKKHLRFVSERILPSEDLIFNVDVLANSNIVCVLPQTFYNYRTNPISISEGHHHHHH,not failed
2,MSLKEFKIGWFATILGTGGVAIASLPYFPVLSVVLTYLLTAIFVILTAVWLAKIIRYPRVVAAELGHFVMGNFYPLQPISAVILAILYRKLGIPLDLPLLAYGAGLILVLTVYLSYHFFANVKAEIHHIHGGWFIPPVSTILVTDALLQYSPNETFFVTSLIYFGIGLMLFLFISTILFLRLVNHELPVFELAPTNFILLAPIGILIVDFTLIAKHAEAIFSANLVPLALIASISLWGFGLWALAVNILLLLRYLRQEMPFFLGWWSYVFPTAAYTLSTIALSHFVPVFSYAATALYAFLIAAWAIIGVRTVGIAIRGA,failed
3,MSLKFFLKAYARIAAIAAAVVLVCVLLFNGINSVREQYWHEQAMTPVMRWLAAAPDPLSQYHWMAPMFGLHSGVAADFGLSQVALERLGYGQVVAQSTDSGYGYYVLGLGGEVLGIHLEQPYRDLARAISLMVRWHLDTSPAAQRADVAQQLAESLNLDIRLVQKTEDLPDQQALERLGDTGLAIFEHGDNRARALVRLSEGALVVVTLPPPFNPWGWPIILLLTAVVGGVLAVALFLALRFVESHLRKVESVAIRIARGEMGARVESEQGTLVSRLGTSFNGMAEHIQRLVQVQREMIHAVSHELRTPVARIRFGVQMIESGSTQEVLEKQLEGIDGDIQELDELIDEILTYARLEQGGPVFSLREGSVTDIVRQVVSEQRLIREGVDIECQIDEASERWAQADMEPRYIHRAIQNLVGNAARYAAGRVQVSCHLDEDNCRIDVEDDGPGIPEQDWEKVFTAFARLDDSRTRTSGGYGLGLSIVRRILYWHGGQAFVGRSDVLGGARFSLVWPRLKPADPDL,failed
4,MSLKIKHEHIRMAMNAWAHPDGEKVPAAEITRAYFELGMTFPELYDDSHPEALARNTQKIFRWVEKDTPDAVEKIQALLPAIEKSMPPLLVARMRSHSSAYFRELVETRERLVRDADDFVAVAIAGFNQMNRGGPAGNIVAVHEGHHHHHH,not failed
5,MSLKIKNILLSGGSGKRLWPLSRSLYPKQFLKLFDHKSLFELSFKRNASLVDETLIVCNEKHYFLALEEIKNEIKNKSVGFLLESLSKNTANAIALSALMSDKEDLLIVTPSDHLIKDLQAYENAIKKAIDLAQKGFLVTFGVSIDKPNTEFGYIESPNGLDVKRFIEKPSLDKAIEFQKSGGFYFNSGMFVFQAGVFLDELKKHAPTILKGCERAFESLENAYFFEKKIARLSEKSMQDLEDMSIDIALMQQSHKIKMVELNAKWSDLGNFNALFEEAANEPKENVSLNQTPVFAKESEEGHHHHHH,not failed
6,MSLKKINTVLAAAFILFILWFGAEFILSPETTAPGFGLPSWPSGDGDGFLIIKGIRDVVLALVLGILLVTGHRRALGWALLVEALAAYGDMTAVLAHHGSVATALGVHCLTATLMVVNGLLIMRETRKVAAAPATPAPQPA,failed
7,MSLKRRQTNIIGVYLADYGGSFYGELLEGIKKGLALFDYEMIVCSGKKSHLFIPEKMVDGAIILDWTFPTKEIEKFAERGHSIVVLDRTTEHRNIRQVLLDNRGGATQAIEQFVNVGSKKVLLLSGPEKGYDSQERLAVSTRELTRFGIPYEIIQGDFTEPSGYAAAKKILSQPQTEPVDVFAFNDEMAIGVYKYVAETNYQMGKDIRIIGFDNSELGAFVQPRLATIAYSKHRWGMVAAEKIIHLMRGEAAESEHIYTRFIEGESFPSEGHHHHHH,not failed
8,MSLKSIEVVAAVIRLGEKYLCVQRGQTKFSYTSFRYEFPGGKVEEGESLQEALQREIMEEMDYVIEVGEKLLTVHHTYPDFEITMHAFLCHPVGQRYVLKEHIAAQWLSTREMAILDWAEADKPIVRKISEQEGHHHHHH,not failed
9,MSLKVPGALPLLFLAACSHLPAKTPLTAEKPAEKKESEQSRVPSQDLTPSMLFDFLLAETALQRGDTEIGLRTYLKLAKNTQDPRVAQRATEAALQARQPAFALEAAKIWTELDPESIPARQMMAALLVHFDRLDEARPHLEKLLAVAGDKIDDAFMQLNSLLVRSPNKNAIFELVKQLAQPYPDLPEAHFAESQAAWFAERFDIALEEMKKALALRPEWEMAAIYEGRILSRESNARAIEFFDDYLKRYPKANDTRITYARLLLAERDYSKAREQFQKLLTENPDNPDVAIAVGLLSLELQNYDVAESNFKRALELGYRDPGMVRFYLGGISEKKQQIPQALNWYRSVTEGTQFIPAQIKYAILLSRTGKTKEGLHHLQQLPVANDQQRAQVIIAEAQLLRESGAYKKAFQLLSSSLEKLPDSPELLYDRALAAEKIGKADIMEQDLRKLIELRPDHAHAYNALGYGIAEHSSKRLPEALELIEKAIKLSPIDPYIIDSLGWVHYRMGDINQGLSYLRQAFAMNPDPEIAAHLGEVLWVQGMKDEAKEIWQTALKNHPGNEALIGVMKKFMK,failed
10,MSLKVVIGYLALDDWEFESLFPTIEWKYLTHINASFARVKADGTLNINPVRKRIESVRETAHKHNVKILISLAKNSPGEFTTAINDPKARKELIQQIIAFTKEYKLDGFDIDYEEYDNWDKNFPSLLVFARGLYLAKEKNMLMTCAVNSRWLNYGTEWEQYFDYINLMSYDRGAFTDKPVQHASYDDFVKDLKYWNEQCRASKSKIVGGLPFYGYSWEESLQGAVDDVRGIRYSGILKHLGNEAADKDNIGKTYYNGRPTIANKCKFIKENDYAGVMIWQLFQDAHNDNYDLKLINVVGREMMEEGHHHHHH,not failed
11,MSLKVVSVDTLCCDAGWRNYHFVKLTTDEGIVGWSEFDEGFGSPGVTAVIEQLGKRLVGASVMEHERFFAEAYCLTRPATGGVVSEGIGAIENALLDAKAKTLNVPCYELLGGKLRDRVPVYWSHCPTWRINHPKFFGPPVTDLDGVKRTAEEARERQFRAIKTNIFIHDDGPLHAWRPGFAVPFQPALNVDRKVLRNLRAHLEALRDGAGPDVEILLDLNFNAKPEGYLKILRELADFDLFWVEIDSYSPQGLAYVRNHSPHPISSCETLFGIREFKPFFDANAVDVAIVDTIWNGVWQSMKIAAFADAHDINVAPHNFYGHLCTMINANFAAAVPNLRIMETDIDRLAWEDELFTHAPEYQNGELIIPDRPGWGTDPVEEAILAHPPKVMGGLLQYKRSEGHHHHHH,not failed
12,MSLLEQLDKNIAASGGLIVSCQPVPGSPLDKPEIVAAMALAAEQAGAVAVRIEGIDNLRMTRSLVSVPIIGIIKRDLDESPVRITPFLDDVDALAQAGAAIIAVDGTARQRPVAVEALLARIHHHHLLAMADCSSVDDGLACQRLGADIIGTTMSGYTTPDTPEEPDLPLVKALHDAGCRVIAEGRYNSPALAAEAIRYGAWAVTVGSAITRLEHICGWYNDALKKAAS,not failed
13,MSLLTEVETYVLSIIPSGPLKAEIAQKLEDVFAGKNTDLEALMEWLKTRPILSPLTKGILGFVFTLTVPSERGLQRRRFVQNALNGNGDPNNMDRAVKLYKKLKREITFHGAKEVALSYSTGALASCMGLIYNRMGTVTTEVAFGLVCATCEQIADSQHRSHRQMATITNPLIRHENRMVLASTTAKAMEQMAGSSEQAAEAMEVANQARQMVQAMRTIGTHPNSSAGLRDNLLENLQAYQKRMGVQMQRFK,not failed
14,MSLMLSHNPIVEPFALAHATIVTGDKAGTILRNMTIVVGADGRIEQVAPSIETSIPAEYHYLDGTGKIVMPGLINAHTHLFSQGKPLNPKLATPKGQRMVATFAHSPLGKPYMAATVKHNATTLLESGVTTIRTLGDVGYEVVTLRDQIDAGQILGPRILASGPLMAIPEGHGAPLIALTSGTPEEARTAVAQNLKAGVNAIKIAATGGVTDAQEIGEAGSPQMSVEQMRAICDEAHQYGVIVGAHAQSPEGVRRSLLAGVDTIEHGSVLDDELIGMFRHNPNALRGYSALIPTLSAGLPLTLLGQDVTGITDIQLENSKNVVGGMVSGARQAHEAGLMIGVGTDTGMTFVPQYATWRELELLVAYAGFSPAEALHAATAVNASILGVDAETGSLEVGKSADLLVLNANPLDDLRALEHPALVIAAGHPVWRPGPKRFADIDALLDEAYAEGHHHHHH,not failed
15,MSLNGSRRIPQPIRWAMVGGGSQSQIGYIHRCAALRDNTFVLVAGAFDIDPIRGSAFGEQLGVDSERCYADYLSMFEQEARRADGIQAVSIATPNGTHYSITKAALEAGLHVVCEKPLCFTVEQAENLRELSHKHNRIVGVTYGYAGHQLIEQAREMIAAGELGDVRMVHMQFAHGFHSAPVEAQSQATQWRVDPRQAGPSYVLGDVGTHPLYLSEVMLPDLKIKRLMCSRQSFVASRAPLEDNAYTLMEYEGGAMGMVWSSAVNAGSMHGQKIRVIGSRASLEWWDERPNQLSFEVQGQPAQILERGMGYLHPNALIDDRIGGGHPEGLFEAWANLYYRFALAMDATDRSDTQALSAVRYPGIDAGVEGVRWVERCVLSADNDSIWVAYEGHHHHHH,not failed
16,MSLNYKNYTVMLVDDEQPILNSLKRLIKRLGCNIITFTSPLDALEALKGTSVQLVISDMRMPEMGGEVFLEQVAKSYPDIERVVISGYADAQATIDAVNRGKISRFLLKPWEDEDVFKVVEKGLQLAFLREENLRLQEETEAKNKQEGHHHHHH,not failed
17,MSLPANQIKEPGKQFQPAKSLKEPSQESLPGNLLKEPSQESRILCPDPDIVVELNVGGQFYTTTMGTLMKHPGSKFSEILSRSAKHYKDAQGRFFIDRPGTYFGPLLDYLRTGQVPTEYIPEVYQEAKFYQIHPLVKLLEDKPQIFGEQVARMQFLMGVPNYRENLEVLLHLARAEAVAMRSSKVVVCVVRTEEDDAKCTEPLHILEAKKTPVVKFGPWKAGPVTEDFVYCLEKDIRAKGYTVASQRYHLSRDPYTCFWILVFTWW,failed
18,MSLPRTLAFVSTLLLAAFCALPAQADSFIMRLLNKPVPGGVAVVDLGEEGPPPRAFYQGKPVLVVREEGRRWIAVVGIPLSTKPGPQKLEVRAATGNHEERFSVGSKHYREQRITLKNKRQVNPLPEDLKRIERELAEQTAAYRRFSPGLPSNLMLDKPVDGPLSSPFGLRRFFNGEERNPHSGLDFAVPAGTPIKAPAAGKVILIGDYFFNGKTVFVDHGQGFISMFCHLSKIDVKLGQQVPRGGVLGKVGATGRATGPHMHWNVSLNDARVDPAIFIGAFQPEGHHHHHH,not failed
19,MSLPSSRTRGRPARLDRARTVQTALDLLNESGLDTLTMRRLAQAMDVQAGALYRYFAAKQDLLTAMAEHMVDGVADAAGATGDGDWSERTARLARALRAALLAHRDGARVFAGTHATGPNTLRFADGLVGVLREAGFGDGDAARALYSVANFTVGHTLEEQAALTPGGGGPLDEATLREAVAAGTYPHLAATLPVLTSTDFTAHFEFGLRLLLDGLRAVRQ,not failed
20,MSLQESSLVLSNGLGFVDTPYKAGTLEVDDTEDLIINCDEVDCTTFVEYALAMALCPQQGDEMQEGDFARNLQRIRYRDGKIDGYTSRLHYISDWINNAVRQGLLEDVTAAYSPFKQKLSLSYMSTHPELYKSLKNSPENVAQMAKYEKALSGKEVHYLPKDKLEPDGLPWIKNGDIIALTTNTPGLDVSHMGIAIYIKGQLHLLHASSKEGKVVVGKTALSQMLKDRKSLTGIRVLRMKKEGHHHHHH,not failed
21,MSLQWECWPSLPCWRCFAASGRITLSIKRFTQNSRRHDMKITKINAIPLSYRLPEGKTVTMGVGSTIKRDAIIIRVETSEGITGYGEAHPGRSPGAITSLIHNTIAPMLIGMKATDCVGAWQRVHRMQLSSHGLGAGAALAISGIDMALWDIRGKAANMPLYELLGGSKRRIPAYAGGIALGYQPKESLAEEAQEYIARGYKALKLRIGDAARVDIERVRHVRKVLGDEVDILTDANTAYTMADARRVLPVLAEIQAGWLEEPFACNDFASYREVAKITPLVPIAAGENHYTRFEFGQMLDAGAVQVWQPDLSKCGGITEGIRIAAMASAYRIPINAHSSATGLNHAATIHFLAATENAGYFEACVSKFNPFRDMFGTSFEIGADGCVEPPDAPGLGIEVDESIFEKYPAVDGPGYVVKFEGHHHHHH,not failed
